Measured values: patent US20240011997A1 (NORDIC BIOSCIENCE A S, published 2024)
Ends that are not written are not given here.

How the values were obtained:
[1] = biological target: T1, intact elastin (Sigma, E7152) (human, UniProt P15502 27-786, limits assumed); assay: ELP-3 competitive ELISA on in vitro cleavage samples
T1 construct: Uncleaved elastin control of the in vitro cleavage experiment
T1 sequence (looked up): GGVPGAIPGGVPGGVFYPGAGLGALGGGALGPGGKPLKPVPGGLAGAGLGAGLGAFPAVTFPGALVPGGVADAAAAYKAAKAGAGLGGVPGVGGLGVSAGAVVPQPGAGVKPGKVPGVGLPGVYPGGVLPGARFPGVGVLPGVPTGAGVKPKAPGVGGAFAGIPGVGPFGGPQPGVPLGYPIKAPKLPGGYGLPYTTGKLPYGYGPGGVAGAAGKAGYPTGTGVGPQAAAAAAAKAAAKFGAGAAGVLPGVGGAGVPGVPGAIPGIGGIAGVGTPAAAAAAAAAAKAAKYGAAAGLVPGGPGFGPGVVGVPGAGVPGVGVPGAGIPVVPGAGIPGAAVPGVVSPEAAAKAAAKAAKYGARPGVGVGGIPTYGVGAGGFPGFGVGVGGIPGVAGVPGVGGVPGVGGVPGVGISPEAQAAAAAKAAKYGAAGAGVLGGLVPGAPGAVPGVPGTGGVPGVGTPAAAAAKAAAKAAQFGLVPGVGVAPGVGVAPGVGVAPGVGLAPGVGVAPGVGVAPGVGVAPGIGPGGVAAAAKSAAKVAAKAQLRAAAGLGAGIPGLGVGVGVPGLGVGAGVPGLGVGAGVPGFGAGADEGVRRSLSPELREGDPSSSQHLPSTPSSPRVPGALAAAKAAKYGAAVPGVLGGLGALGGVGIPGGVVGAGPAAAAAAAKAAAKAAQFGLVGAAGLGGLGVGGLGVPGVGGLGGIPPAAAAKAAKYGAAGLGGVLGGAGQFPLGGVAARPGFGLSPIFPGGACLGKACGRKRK

[2] = biological target: T2, Proteinase 3 (PR3; EPC ML734) (UniProt P24158 28-248); assay: as above
T2 construct: also called protease control
T2 sequence (looked up): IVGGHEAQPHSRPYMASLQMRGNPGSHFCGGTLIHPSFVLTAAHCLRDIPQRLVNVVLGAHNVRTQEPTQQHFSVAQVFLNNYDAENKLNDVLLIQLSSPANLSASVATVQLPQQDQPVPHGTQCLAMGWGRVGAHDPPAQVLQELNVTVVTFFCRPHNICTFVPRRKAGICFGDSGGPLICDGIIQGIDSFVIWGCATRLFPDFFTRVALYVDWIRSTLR

[3] = biological target: T3, Human neutrophil elastase (HNE) protein (Abcam, ab91099) (human, UniProt P08246 30-247, limits assumed); assay: as above
T3 construct: also called protease control
T3 sequence (looked up): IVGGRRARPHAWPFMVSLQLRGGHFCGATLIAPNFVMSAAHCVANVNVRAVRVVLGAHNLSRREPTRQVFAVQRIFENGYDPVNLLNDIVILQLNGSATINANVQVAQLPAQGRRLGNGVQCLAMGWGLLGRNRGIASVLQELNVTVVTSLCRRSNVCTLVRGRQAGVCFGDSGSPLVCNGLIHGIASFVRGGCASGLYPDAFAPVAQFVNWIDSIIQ

[4] = biological target: T4, Standard peptide LPGGYGLPYT (human); assay: Indirect or competitive ELISA with the standard peptide as calibrator
T4 construct: Synthetic decapeptide with a free C-terminus; also called calibrator peptide; selection peptide
T4 peptide: LPGGYGLPYT-OH

[5] = biological target: T5, non-sense peptide PGGVPGGVFY; assay: Competitive ELISA on coated Biotin-…
T5 construct: Control peptide in the specificity test
T5 peptide: PGGVPGGVFY
Protocol: (§1) Based on the collected antibodies the ELP-3 assay was developed as competitive ELISA assay. A 96-well streptavidin-coated microtiter plate (Roche, Basel, Switzerland) was coated with 100 ul biotinylated screening peptide (Biotin-[…] (SEQ ID NO: 5)) dissolved in assay buffer for 30 min at 20° C. with shaking. Plates were washed five times in washing buffer (20 mM TRIS, 50 mM NaCl, pH 7). Sample/standard/control (20 ul) was added and followed by addition of (100 ul) monoclonal antibody and incubated for 3 h at 4° C. with shaking. After incubation, plates were washed five times in washing buffer. A volume of 100 ul of secondary HRP labeled goat anti-mouse antibody was added followed by 1 h incubation at 20° C. with shaking. Plates were then washed and TMB was added and the plate was analyzed by a SpectraMax M reader (Molecular Devices, Ca, USA) at 450 nm with 650 nm as the reference. A standard curve was plotted using a 4-parametric mathematical fit model. Each ELISA plate included kit controls to monitor inter-assay variation. All samples were measured within the range of the assay. All samples below the level of lower limit of quantification (LLOQ) were assigned the value of LLOQ.
(§2) Supernatants from antibody producing hybridomas were screened for reactivity against standard peptide, elongated peptide, and truncated peptide in an indirect ELISA. The peptide Biotin-[…] […]

[6] = biological target: T6, Elongated peptide LPGGYGLPYTT (human); assay: Competitive ELISA on coated Biotin-LPGGYGLPYT
T6 construct: Standard peptide extended by one threonine at the C-terminus; also called C-extended elongated version
T6 peptide: LPGGYGLPYTT
Protocol: as §1, §2

Measured: binding result

B1: monoclonal antibody clone NBH116/6A10-E7-D12 (antibody, mouse IgG1, kappa, V domains shown)
VH: EVKLVESGGGLVQPGDSLRLSCATSGFTFTDYYMSWVRQPPGKALEWLGFIRNKANGYTTEYSASVKGRFTISRDNSQSILYLQMNTLRAEDSATYYCARDIITTPSWFGYWGQGTLVTVSA
VL: DIQMNQSPSSLSASLGDTITITCHASQNINVWLSWYQQKPGNIPKLLIYKASNLHTGVPSRFSGSGSGTGFTLTISSLQPEDIATYYCQQGQSYPLTFGAGTKLELKR
notes: also called ELP-3 antibody; the selected antibody
binds: [4]
no binding: all other assays above
